Patent publication US20260166115A1, “POLYUNSATURATED FATTY ACID-BOUND ALPHA FETOPROTEIN PROMOTES IMMUNE SUPPRESSION BY ALTERING HUMAN DENDRITIC CELL METABOLISM” (The Regents of the University of California, priority 2022, published 2026)

What was measured:
[1] = test system: monocyte-derived dendritic cells (DCs); assay: Flow cytometry phenotype of in vitro differentiated DCs treated with OVA, nAFP or tAFP; format: cell-based, human
Text: (§1) DCs were differentiated in vitro similarly as previously described (Pardee, A. D., Shi, J. & Butterfield, L. H. Tumor-Derived α-Fetoprotein Impairs the Differentiation and T Cell Stimulatory Activity of Human Dendritic Cells. J Immunol. 193, 5723-5732 (2014)). In brief, cryopreserved PBMC were thawed and CD14*monocytes were magnetically labeled using CD14 MicroBeads (Miltenyi, Cat #130-050-201) and isolated by LS columns (Miltenyi, Cat #130-042-401) per the manufacturer instructions. Viable eluted cells were enumerated using trypan blue on a Nexcelom Cellometer Spectrum. To generate iDCs, monocytes were stimulated for 5 days in the presence of 800 IU/mL of rGM-CSF (Miltenyi, Cat #130-093-862) and 500 IU/mL of rIL-4 (Miltenyi, Cat #130-095-373) as well as OVA, nAFP, or tAFP in CellGenix® GMP DC media (Cat #20801-0500) 37° C. at 5% CO2. Lastly, we performed an additional 24-hour stimulation with 1000 IU/mL of rIFN-γ (Peprotech, Cat #300-02) and 250 ng/mL of LPS (Sigma Aldrich, Cat #L2630-10MG) to produce mDCs. To harvest cells, DC were detached using TrypLE™ Select (Gibco, Cat #12563011) for 15 minutes at 37° C. and then washed several times with cold PBS.
(§2) SCENITH was performed as described in (Arguello et al., 2020). SCENITH™ reagents kit (inhibitors, puromycin and antibodies) were obtained from www.scenith.com/try-it and used according to the provided protocol for in-vitro derived myeloid cells. Briefly, control and tol-moDC cultures at desired timepoints, were treated for 18 minutes with Control (DMSO), 2-Deoxy-Glucose (2-DG; 100 mM), Oligomycin (0; 1 μM), a combination of 2DG and Oligomycin (DGO) or Harringtonine (H; 2 μg/mL). Following metabolic inhibitors, Puromycin (final concentration 10 μg/mL) was added to cultures for 17 min. After puromycin treatment, cells were detached from wells using TypLE Select (Fisher Scientific, 505914419), washed in cold PBS and stained with a combination of Human TureStain FcX (Biolegend, 422301) and fluorescent cell viability dye (Biolegend, 423105) for 10 min 4° C. in PBS. Following PBS wash step, primary antibodies against surface markers were incubated for 25 min at 4° C. in Brilliant Stain Buffer (BD Biosciences, 563794). Next cells were fixed and permeabilized using True-Nuclear Transcription Factor Buffer Set (Biolegend, 424401) as per manufacturer instructions. Intracellular staining of puromycin and protein targets was performed for 1 h in diluted (10×) permeabilization buffer at 4° C. Finally, data acquisition was performed using the Cytek Aurora flow cytometer. Primary conjugated antibody information used in SCENITH panel is listed in supplementary table 1. All antibodies were titrated to reduce spillover and increase resolution using single stained moDC (generated as described above) samples. Unstained cell controls used for autofluorescence extraction were generated for each time point, culture conditions (control, vitd3-tol-moDC and dexa-vitd3-tol-moDC) and metabolic inhibitor treatments (C, 2DG, O, DGO). Samples were unmixed using reference controls generated in combination with stained Ultracomp beads (Fisher Scientific, 01-2222-41) and stained cells using the SpectroFlo Software v2.2.0.1. The unmixed FCS files were used for data processing and analysis using FlowJo (BD, version 10.7.1). Manually gated CD14-HLA-DR*CD86+ cells were used for downstream analysis. gMFI expression values were imported into R environment for correlation and heatmap analysis using the below described R packages.

[2] = test system: monocyte-derived dendritic cells (DCs); assay: SCENITH single-cell energetic metabolism profiling of treated DCs; format: cell-based, human; conditions: mDC HLA-DR+, CD206+, CD86+
Text: as §1, §2

[3] = test system: monocyte-derived dendritic cells (DCs); assay: Glucose and lactate measurements in DC cultures; format: cell-based, human
Text: as §1
Glucose and lactate were measured by applying approximately 5 μL of supernatant to Clarity BG1000 Blood Glucose strips (Cat #75840-798) and meter (Cat #75840-800) system or the Lactate Plus strips (Nova Biomedical©, Cat #40813) and meter version 2 (Nova Biomedical©, Cat #62624) system. Each meter was quality checked with control glucose and lactate solutions and CellGenix™ media before each experiment.

mDCs generated in vitro = assay: scMEP single-cell metabolic regulome profiling by CyTOF; format: cell-based, human
Experimental: scMEP analysis was performed as recently described (Hartmann et al., 2021). In short, antibodies targeting metabolic features were conjugated in-house using an optimized conjugation protocol (Hartmann et al., 2019) and validated on multiple sample types. Cells were prepared for scMEP analysis by incubation with small molecules to be able to assess biosynthesis rates of DNA, RNA and protein, cisplatin-based live/dead staining, PFA-based cell fixation and cryopreservation (dx.doi.org/10.17504/protocols.io.bkwkkxcw). Next, cells were stained with metabolic antibodies in a procedure that includes surface staining for 30 min at RT, PFA-fixation for 10 min at RT, MeOH-based permeabilization for 10 min on ice, intracellular staining for 1 h at RT and DNA intercalation (dx.doi.org/10.17504/protocols.io.bntnmeme). Finally, cells were acquired on a CyTOF2 mass cytometer (Fluidigm). Protein targets and antibody information used in scMEP are listed in supplementary table 2. Raw mass spectrometry data were pre-processed, de-barcoded and imported into R environment using the flowCore package (version 2.0.1) (Hahne et al., 2009). Values were arcsin h transformed (cofactor 5) and normalized (Hartmann et al., 2021) for downstream analyses based on previously reported workflow (Nowicka et al., 2017).

[4] = test system: iDCs differentiated from monocytes; assay: Microarray gene expression and g:Profiler pathway analysis of treated DCs; format: cell-based, human
Text: OVA, nAFP, and tAFP-treated DC were lysed, and total mRNA was obtained for microarray (Affymetrix HG-U133A). DE genes were uploaded in g:Profiler in R Studio for pathway analysis and visualization (Raudvere, U. et al. g:Profiler: a web server for functional enrichment analysis and conversions of gene lists (2019 update). Nucleic Acids Res. 47, W191-W198 (2019)).

iDCs = assay: Intracellular Zn measurement by flow cytometry; format: cell-based, human; conditions: P=0.0293 vs nAFP, P=0.0228 vs OVA
Experimental: Intracellular Zn was quantified by flow cytometry using the Zinc Assay Kit (Cell-based) (Abcam, Cat #ab241014). Monocytes were differentiated to iDCs as described above in the presence of OVA, nAFP, tAFP, or ZnSO4. […] Cells were stained with LD Aqua for 10 minutes at RT. Cells were washed in 1× Assay Buffer, then stained in 100 μL of Assay Buffer+0.2 μL of Zn Probe for 30 minutes at 37° C. Cells were then washed twice with 1× Assay buffer then stained with HLA-DR-APC-H7 (BD, Clone: GF6-6, Cat #561358, Lot #0023290, 0339025), CD86-BV785 (BioLegend, Clone: IT2.2, Cat #305441, Lot #B277560), CD206 PE-Cy7 (Biolegend, Clone: 15-2, Cat #321123, Lot #B331254), and CD14-BUV805 (BD, Clone: M5E2, Cat #612903, Lot #0297714), in Brilliant Stain Buffer (BD Horizon, Cat #566349, Lot #0121427) for 20 minutes at 4° C. Cells were washed twice in FACS Buffer and fixed in 1% paraformaldehyde (Thermo Scientific, Cat #J19943-K2, Lot #195273, diluted in PBS) for at least 30 minutes before acquisition on a BD LSRFortessam X-50.

dendritic cells (DCs) = conditions: tAFP-treated DCs; cited from earlier work

B1: tAFP: tumor-derived alpha fetoprotein, SEQ ID NO: 1; commercially available (Bio-Rad) (protein, listed as Homo sapiens)
chain: MKWVESIFLIFLLNFTESRTLHRNEYGIASILDSYQCTAEISLADLATIFFAQFVQEATYKEVSKMVKDALTAIEKPTGDEQSSGCLENQLPAFLEELCHEKEILEKYGHSDCCSQSEEGRHNCFLAHKKPTPASIPLFQVPEPVTSCEAYEEDRETFMNKFIYEIARRHPFLYAPTILLWAARYDKIIPSCCKAENAVECFQTKAATVTKELRESSLLNQHACAVMKNFGTRTFQAITVTKLSQKFTKVNFTEIQKLVLDVAHVHEHCCRGDVLDCLQDGEKIMSYICSQQDTLSNKITECCKLTTLERGQCIIHAENDEKPEGLSPNLNRFLGDRDFNQFSSGEKNIFLASFVHEYSRRHPQLAVSVILRVAKGYQELLEKCFQTENPLECQDKGEEELQKYIQESQALAKRSCGLFQKLGEYYLQNAFLVAYTKKAPQLTSSELMAITRKMAATAATCCQLSEDKLLACGEGAADIIIGHLCIRHEMTPVNPGVGQCCTSSYANRRPCFSSLVVDETYVPPAFSDDKFIFHKDLCQAQGVALQTMKQEFLINLVKQKPQITEEQLEAVIADFSGLLEKCCQGQEQEVCFAEEGQKLISKTRAALGV
- expression of pAMPK [1]: decreased expression
- expression of the fatty acid transporter CD36 [1]: decline
- co-expression of multiple activation markers (HLA-DR, CD206, CD86, ICOSLG/CD275) ([1]; Boolean analysis): decreased co-expression
- DC CD86 expression ([1]; tAFP-treated DC): trend for reduced
- DC CD206 expression ([1]; tAFP-treated DC): limited
- DC HLA-DR expression ([1]; tAFP-treated DC): limited
- fatty acid and glutaminolysis (FAAO) (SCENITH) [2]: reduction
- glycolysis (SCENITH) [2]: dramatic increase
- mitochondrial dependency (SCENITH) [2]: reduction
- intracellular glucose [3]: increase
- glucose uptake ([3]; DC): take up more glucose
- glucose in the culture supernatants ([3]; day 6): significantly less
- lactate secreted, relative to OVA-treated DCs ([3]; media of treated DCs, all HDs): approximately twice
- ASCT2 (mDCs generated in vitro): unchanged
- ETC/TCA parameters ATP5A, CS and SDHA (mDCs generated in vitro): lower
- GLS (mDCs generated in vitro): tended to be lower
- amino acid pathway proteins CD98 and G6PD (mDCs generated in vitro): significantly decreased
- expression of DC markers CD206, PD-L1, CD11b, CD1c, HLA-DR, CD86 and CD11c (mDCs generated in vitro): reduced expression
- glycolysis proteins (GLUT1, GLUT3, LDHA, ENO1, GAPDH, and MTC1) (mDCs generated in vitro): modest differences that were not statistically significant
- levels of cytochrome C (CytC) (mDCs generated in vitro): elevated
- FAO or FAS proteins CD36, CDPT1A, HADHA, and ACLY (mDCs generated in vitro; mDCs): decreased
- ACS gene [4]: did not reach statistical significance
- SLC2A3 (GLUT3) gene expression [4]: increase
- gene expression of CPT1A [4]: increased
- genes involved in fatty acid metabolism (PDH, ACLY, ACC, FASN, LPL, CD36, CACT) [4]: downregulation
- pathways associated with lipid metabolism ([4]; tAFP compared to nAFP): significantly downregulated
- upregulated gene pathways ([4]; tAFP compared to nAFP): stress response to metal ions, particularly zinc
- increase in Zn MFI compared to nAFP or OVA-treated iDCs (iDCs): ~30%
- mitochondrial mass (dendritic cells (DCs)): decreased
